# Data: US20110300138A1 (published 2011)
# Where two headings read alike, the source gives them in different places.
# Experiments:
# Assay in all cases: cell-based or functional assay
# [1] = target: TSHR with Glu178 mutated to Ala expressed in CHO cells (human) (UniProt P16473)
# [2] = target: TSHR with Lys183 mutated to Asp expressed in CHO cells (human) (UniProt P16473)
# [3] = target: TSHR with Asp203 mutated to Ala expressed in CHO cells (human) (UniProt P16473)
# [4] = target: wild type TSHR expressed in CHO cells (human) (UniProt P16473)
# [5] = target: TSHR with Lys183 mutated to Ala expressed in CHO cells (human) (UniProt P16473)
# [6] = target: TSHR with Trp258 mutated to Ala, expressed in CHO cells (human) (UniProt P16473)
# [7] = target: wild type TSHR (human TSH receptor) expressed in CHO cells (human) (UniProt P16473)
# [8] = target: TSHR with Tyr82 mutated to Ala expressed in CHO cells (human) (UniProt P16473)
# [9] = target: wild type TSHR expressed in CHO cells (human) (UniProt P16473); remark: listed apart in the source
# [10] = target: wild type TSHR (human TSH receptor) expressed in CHO cells (human) (UniProt P16473); remark: listed apart in the source
# [11] = target: TSHR with Thr257 mutated to Ala, expressed in CHO cells (human) (UniProt P16473)
substance,measurement,setting,value
TSH (thyroid stimulating hormone) (ligand),"Mutated/wild type (%) of cyclic AMP produced; TSH (2) 3 ng/mL, run at the end of assay; Exp 1",[1],65%
same,"Mutated/wild type (%) of cyclic AMP produced; TSH (2) 3 ng/mL, run at the end of assay; Exp 2",[1],50%
same,"% inhibition of TSH stimulation; TSH (2), run at the end of assay",[2],20%
same,Cyclic AMP produced; TSH 3 ng/mL,[2],117 pmol/mL
same,"Cyclic AMP produced; TSH (2) 3 ng/mL, run at the end of assay",[2],93.4 pmol/mL
same,Mutated/wild type (%) of cyclic AMP produced; TSH 3 ng/mL,[2],137%
same,% inhibition of TSH stimulation: TSH (2),[3],0%
same,"Cyclic AMP, Mutated/wild type (%): TSH 3 ng/mL",[3],76%
same,"Cyclic AMP, Mutated/wild type (%): TSH (2)",[3],87%
same,"% inhibition of TSH stimulation; TSH (2), run at the end of assay",[4],0%
same,"% inhibition of TSH stimulation; TSH (2), run at the end of assay, no antibody; Experiment 1",[4],0%
same,"% inhibition of TSH stimulation; TSH (2), run at the end of assay, no antibody; Experiment 2",[4],12%
same,"% inhibition of TSH stimulation; TSH (2), run at the end of assay; Exp 1",[4],0%
same,"% inhibition of TSH stimulation; TSH (2), run at the end of assay; Exp 2",[4],0%
same,Cyclic AMP produced at 0.01 ng/mL TSH,[4],3.11 pmol/mL
same,Cyclic AMP produced at 0.03 ng/mL TSH,[4],4.43 pmol/mL
same,Cyclic AMP produced at 0.1 ng/mL TSH,[4],10.1 pmol/mL
same,Cyclic AMP produced at 0.3 ng/mL TSH,[4],41.2 pmol/mL
same,Cyclic AMP produced at 1 ng/mL TSH,[4],74.5 pmol/mL
same,Cyclic AMP produced at 3 ng/mL TSH,[4],95.3 pmol/mL
same,Cyclic AMP produced; TSH 3 ng/mL,[4],85.8 pmol/mL
same,Cyclic AMP produced; TSH 3 ng/mL alone; Experiment 1,[4],77.9 pmol/mL
same,Cyclic AMP produced; TSH 3 ng/mL alone; Experiment 2,[4],86.5 pmol/mL
same,Cyclic AMP produced; TSH 3 ng/mL; Exp 1,[4],52.9 pmol/mL
same,Cyclic AMP produced; TSH 3 ng/mL; Exp 2,[4],87.2 pmol/mL
same,"Cyclic AMP produced; TSH (2) 3 ng/mL, run at the end of assay",[4],97.8 pmol/mL
same,"Cyclic AMP produced; TSH (2) 3 ng/mL, run at the end of assay; Exp 1",[4],77.2 pmol/mL
same,"Cyclic AMP produced; TSH (2) 3 ng/mL, run at the end of assay; Exp 2",[4],88.1 pmol/mL
same,"Cyclic AMP produced; TSH (2) 3 ng/mL, run at the end of assay; Experiment 1",[4],84.5 pmol/mL
same,"Cyclic AMP produced; TSH (2) 3 ng/mL, run at the end of assay; Experiment 2",[4],75.9 pmol/mL
same,"% inhibition of TSH stimulation, Exp 1: TSH (2)",[5],18%
same,"% inhibition of TSH stimulation, Exp 2: TSH (2)",[5],23%
same,"Cyclic AMP, Mutated/wild type (%), Exp 1: TSH 3 ng/mL",[5],124%
same,"Cyclic AMP, Mutated/wild type (%), Exp 1: TSH (2)",[5],74%
same,"Cyclic AMP, Mutated/wild type (%), Exp 2: TSH 3 ng/mL",[5],128%
same,"% inhibition of TSH stimulation; TSH (2), run at the end of assay",[6],20%
same,Cyclic AMP produced; TSH 3 ng/mL,[6],59.9 pmol/mL
same,"Cyclic AMP produced; TSH (2) 3 ng/mL, run at the end of assay",[6],47.8 pmol/mL
same,Mutated/wild type (%) of cyclic AMP produced; TSH 3 ng/mL,[6],102%
same,Cyclic AMP produced; TSH 3 ng/mL,[7],58.8 pmol/mL
same,"Cyclic AMP produced; TSH (2) 3 ng/mL, run at the end of assay",[7],69.6 pmol/mL
same,Cyclic AMP produced at 0.01 ng/mL TSH,[8],2.6 pmol/mL
same,Cyclic AMP produced at 0.03 ng/mL TSH,[8],4.1 pmol/mL
same,Cyclic AMP produced at 0.1 ng/mL TSH,[8],9.64 pmol/mL
same,Cyclic AMP produced at 0.3 ng/mL TSH,[8],33.7 pmol/mL
same,Cyclic AMP produced at 1 ng/mL TSH,[8],50 pmol/mL
same,Cyclic AMP produced at 3 ng/mL TSH,[8],61.3 pmol/mL
same,Mutated/Wild type (%) of cyclic AMP at 0.01 ng/mL TSH,[8],257%
same,Mutated/Wild type (%) of cyclic AMP at 0.03 ng/mL TSH,[8],93%
same,Mutated/Wild type (%) of cyclic AMP at 0.1 ng/mL TSH,[8],100%
same,Mutated/Wild type (%) of cyclic AMP at 0.3 ng/mL TSH,[8],113%
same,Mutated/Wild type (%) of cyclic AMP at 3 ng/mL TSH,[8],108%
same,Cyclic AMP produced at 0.01 ng/mL TSH,[9],1.01 pmol/mL
same,Cyclic AMP produced at 0.03 ng/mL TSH,[9],4.39 pmol/mL
same,Cyclic AMP produced at 0.1 ng/mL TSH,[9],9.67 pmol/mL
same,Cyclic AMP produced at 0.3 ng/mL TSH,[9],29.8 pmol/mL
same,Cyclic AMP produced at 1 ng/mL TSH,[9],53.3 pmol/mL
same,Cyclic AMP produced at 3 ng/mL TSH,[9],56.6 pmol/mL
same,Cyclic AMP produced; TSH 3 ng/mL,[10],66.1 pmol/mL
same,"Cyclic AMP produced; TSH (2) 3 ng/mL, run at the end of assay",[10],93 pmol/mL
same,"% inhibition of TSH stimulation; TSH (2), run at the end of assay",[11],8%
same,Cyclic AMP produced; TSH 3 ng/mL,[11],93.2 pmol/mL
same,"Cyclic AMP produced; TSH (2) 3 ng/mL, run at the end of assay",[11],85.4 pmol/mL
same,Mutated/wild type (%) of cyclic AMP produced; TSH 3 ng/mL,[11],141%
